Patent publication US20040248181A1, “Method and kit for enhancing extraction and quantification of target molecules using microdialysis” (priority 2003, published 2004)

experiment: Microdialysis sampling of cytokines across CMA-20 probe (10 mm polyethersulfone membrane, 100 kD MWCO) with multiplexed cytokine bead array / flow cytometry readout; type: physicochemical; details: control perfusion fluid without microspheres; flow rate 1.5 μl/min; quiescent phosphate buffer pH 7.4 containing 5000 pg/ml cytokines
Method: Microdialysis probes (CMA-20) with a 10 mm polyethersulfone membrane (100 kDa MWCO) were purchased from CMA Microdialysis (Acton Mass.) and were used as received. For control experiments, the perfusion fluid contained the assay diluent from the BD Pharmingen kit. To enhance the transport of cytokines during the microdialysis sampling process, 5 μl of bead solution for each target analyte was combined and diluted to 250 μl with the assay diluent. […] Greater than 200 μl of fluid was allowed to pass through the microdialysis probe that was immersed into a standard containing 5000 pg/ml of IL-2, IL-4, IL-5, IFN-gamma, and TNF-alpha. After sample collection, the dialysates containing microspheres were reconstituted in 25 μl of assay diluent. Microspheres with coupled target analyte were then incubated with 25 μl phycoerythrin detection reagent for 2 hours and washed briefly prior to flow cytometric analysis.
The dialysate samples were analyzed using a BD FACScan flow cytometer with the appropriate BD Biosciences software for this analysis.
Different cytokines (e.g., mouse IL-2 (15 kD), IL-4 (20-25 kD), and TNF-α ([…])) have been successfully measured across microdialysis probes (CMA-20, 10 mm, polyethersulfone membrane, MWCO 100 kD) in a quiescent solution using a multiplexed cytokine bead array assay (BD Pharmingen). TNF-α has the largest molecular weight of the cytokines targeted for analysis in this example (Thorpe et al., “Detection and Measurement of Cytokines,” Blood Rev. 6:133-48 (1992), which is hereby incorporated by reference in its entirety). Only 25 μl of sample was needed to simultaneously measure all three of these cytokines in solution using the multiplexed bead array (Carson et al., “Simultaneous Quantitation of 15 Cytokines Using a Multiplexed Flow Cytometric Assay,” J. Immunol. Methods 227:41-52 (1999), which is hereby incorporated by reference in its entirety). […]

Row | Molecule | microdialysis Ed (extraction efficiency)
1 | TNF-α | 1.5±0.5%
2 | IL-4: mouse cytokine, 20-25 kD; target analyte of microdialysis sampling | 0.9±0.3%
3 | IL-2: mouse cytokine, 15 kD; target analyte of microdialysis sampling (protein, UniProt P04351 21-169, looked up) Interleukin-2: APTSSSTSSSTAEAQQQQQQQQQQQQHLEQLLMDLQELLSRMENYRNLKLPRMLTFKFYLPKQATELKDLQCLEDELGPLRHVLDLTQSKSFQLEDAENFISNIRVTVVKLKGSDNTFECQFDDESATVVDFLRRWIAFCQSIISTSPQ | 1.1±0.3%
